From the supplement of paper PMC9112550, “Optimization of the antimicrobial peptide Bac7 by deep mutational scanning” (BMC Biology, 2022) come the findings set out here.

The data set has as its system Escherichia coli TOP10. Briefly: shrunken log2 fold change of peptide-encoding DNA abundance (4.5 h post-induction vs induction); higher = less antimicrobial activity (less host growth inhibition). To be noted: time post-induction: 4.5 h; library: site-saturation at positions 5, 18, 19, 20.
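Note: peptides expressed intracellularly from a pBAD plasmid library in pooled LB shake-flask culture, induced with 0.3% L-arabinose, DNA abundance read by NGS, three biological replicates, DESeq2 with apeglm shrinkage.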

Regarding RRIRCRPPRLPRPRPRPENAPRP, the “shrunken log2 fold change” value is 0.117.
The result for RRIRFRPPRLPRPRPRPADNPRP reads 0.0503; that for RRIRERPPRLPRPRPRPEGCPRP, -0.318; that for RRIRCRPPRLPRPRPRPDTLPRP, -0.96.
The result for RRIRPRPPRLPRPRPRPLCLPRP reads -0.294; that for RRIRFRPPRLPRPRPRPRMCPRP, 0.0779; that for RRIRYRPPRLPRPRPRPPEPPRP, 0.35.
The result for RRIRARPPRLPRPRPRPIETPRP reads -0.18; that for RRIRRRPPRLPRPRPRPCPFPRP, 0.0522.
In the case of RRIRYRPPRLPRPRPRPTAAPRP, the “shrunken log2 fold change” value stood at 0.111.
As to RRIRVRPPRLPRPRPRPMYQPRP, the “shrunken log2 fold change” value was -0.342.
The result for RRIRERPPRLPRPRPRPIWSPRP reads 0.0428.
Consider RRIRHRPPRLPRPRPRPQNDPRP, for which the “shrunken log2 fold change” value is 0.0173.
The result for RRIRYRPPRLPRPRPRPNVCPRP reads 0.00285; that for RRIRARPPRLPRPRPRPMHWPRP, 0.548.
Take RRIRHRPPRLPRPRPRPYYWPRP: the “shrunken log2 fold change” value is -0.0132.
The result for RRIRPRPPRLPRPRPRPHNWPRP reads 0.0255; that for RRIRSRPPRLPRPRPRPSAHPRP, 0.0639.
The result for RRIRFRPPRLPRPRPRPQAWPRP reads 0.15; that for RRIRYRPPRLPRPRPRPCPFPRP, -0.0574.
The result for RRIRLRPPRLPRPRPRPWREPRP reads -0.018; that for RRIRIRPPRLPRPRPRPSRNPRP, -0.124.
With RRIRMRPPRLPRPRPRPCCDPRP, the “shrunken log2 fold change” value was determined as 0.393.
The result for RRIRSRPPRLPRPRPRPSIDPRP reads -0.536; that for RRIRWRPPRLPRPRPRPPHWPRP, 0.592.
The result for RRIRSRPPRLPRPRPRPYDHPRP reads -0.795.
The result for RRIRGRPPRLPRPRPRPANYPRP reads 0.0041; that for RRIRWRPPRLPRPRPRPCPRPRP, -0.0457.
RRIRIRPPRLPRPRPRPIVIPRP: the “shrunken log2 fold change” value is -0.103.
The result for RRIRNRPPRLPRPRPRPMVGPRP reads -0.0679; that for RRIRHRPPRLPRPRPRPPDFPRP, 0.0633; that for RRIRKRPPRLPRPRPRPCFMPRP, -0.0787.
The result for RRIRWRPPRLPRPRPRPKSAPRP reads 0.606; that for RRIRERPPRLPRPRPRPLLLPRP, -0.305; that for RRIRQRPPRLPRPRPRPTPCPRP, -0.138.
The result for RRIRFRPPRLPRPRPRPTSLPRP reads -1.17; that for RRIRTRPPRLPRPRPRPTNPPRP, -0.374; that for RRIRGRPPRLPRPRPRPRFNPRP, 0.0824.
On to RRIRLRPPRLPRPRPRPWYTPRP, for which the “shrunken log2 fold change” value was -0.57.
The result for RRIRCRPPRLPRPRPRPLADPRP reads 0.4; that for RRIRMRPPRLPRPRPRPWTVPRP, -0.248; that for RRIRYRPPRLPRPRPRPGPWPRP, 0.18.
The result for RRIRFRPPRLPRPRPRPWMMPRP reads -0.897; that for RRIRSRPPRLPRPRPRPVDQPRP, 0.034; that for RRIRLRPPRLPRPRPRPGLTPRP, -0.00899.
The result for RRIRDRPPRLPRPRPRPLIAPRP reads 0.468; that for RRIRMRPPRLPRPRPRPCVIPRP, -0.04.
With RRIRDRPPRLPRPRPRPWRFPRP, the “shrunken log2 fold change” value is -0.277.
Consider RRIRFRPPRLPRPRPRPMRNPRP, for which the “shrunken log2 fold change” value stood at 0.92.
The result for RRIRLRPPRLPRPRPRPPLRPRP reads 0.386; that for RRIRIRPPRLPRPRPRPWQQPRP, 0.0529; that for RRIRMRPPRLPRPRPRPILEPRP, 0.142.
The result for RRIRLRPPRLPRPRPRPLERPRP reads -0.000861.
The result for RRIRERPPRLPRPRPRPNHTPRP reads -0.58; that for RRIRHRPPRLPRPRPRPQDPPRP, 0.0646.
For RRIRFRPPRLPRPRPRPWWVPRP, the “shrunken log2 fold change” value was determined as 0.00262.
The result for RRIRFRPPRLPRPRPRPYETPRP reads -0.185; that for RRIRLRPPRLPRPRPRPYTQPRP, -0.845; that for RRIRGRPPRLPRPRPRPQEPPRP, 0.134.
The result for RRIRTRPPRLPRPRPRPWKAPRP reads 0.0456.
The result for RRIRPRPPRLPRPRPRPPEPPRP reads 0.787; that for RRIRVRPPRLPRPRPRPGWWPRP, 0.115.
For the sequence RRIRRRPPRLPRPRPRPKMNPRP, the “shrunken log2 fold change” value is -0.0665.
The result for RRIRYRPPRLPRPRPRPCRMPRP reads -0.0503; that for RRIRTRPPRLPRPRPRPHDEPRP, 0.00408; that for RRIRCRPPRLPRPRPRPQPLPRP, 0.19.
The result for RRIRVRPPRLPRPRPRPELTPRP reads 0.149; that for RRIRSRPPRLPRPRPRPIIDPRP, -0.178; that for RRIRKRPPRLPRPRPRPTLCPRP, 0.403.
The result for RRIRARPPRLPRPRPRPMVNPRP reads 0.309.
Take RRIRWRPPRLPRPRPRPGDCPRP: the “shrunken log2 fold change” value is 0.00839.
Regarding RRIRWRPPRLPRPRPRPLFTPRP, the “shrunken log2 fold change” value was -0.137.
Turning to RRIRWRPPRLPRPRPRPSTFPRP, the “shrunken log2 fold change” value is -0.616.
For RRIRGRPPRLPRPRPRPGKGPRP, the “shrunken log2 fold change” value stood at 0.394.
The result for RRIRARPPRLPRPRPRPQKNPRP reads 0.0395; that for RRIRDRPPRLPRPRPRPMRDPRP, 0.131; that for RRIRFRPPRLPRPRPRPMQNPRP, 0.027.
The result for RRIRARPPRLPRPRPRPGNTPRP reads -0.0858.
As for RRIRARPPRLPRPRPRPNMVPRP, the “shrunken log2 fold change” value was -0.175.
The result for RRIRPRPPRLPRPRPRPDMGPRP reads -0.407; that for RRIRVRPPRLPRPRPRPDGLPRP, 0.0431.
The result for RRIRNRPPRLPRPRPRPEVGPRP reads 0.662; that for RRIRYRPPRLPRPRPRPTVIPRP, -0.146; that for RRIRNRPPRLPRPRPRPQDAPRP, -0.131.
The result for RRIRPRPPRLPRPRPRPAMVPRP reads 0.844.
As to RRIRFRPPRLPRPRPRPATKPRP, the “shrunken log2 fold change” value was 0.217.
The result for RRIRCRPPRLPRPRPRPMPPPRP reads 0.914; that for RRIRDRPPRLPRPRPRPYMCPRP, -0.0331.
The result for RRIRLRPPRLPRPRPRPVQKPRP reads 0.113.
In the case of RRIRRRPPRLPRPRPRPIQTPRP, the “shrunken log2 fold change” value was found to be 0.00408.
The result for RRIRFRPPRLPRPRPRPMGKPRP reads -0.307; that for RRIRWRPPRLPRPRPRPSESPRP, 0.0933; that for RRIRVRPPRLPRPRPRPGNVPRP, -0.393.
The result for RRIRGRPPRLPRPRPRPIMCPRP reads 0.0901; that for RRIRSRPPRLPRPRPRPKYYPRP, -0.918; that for RRIRFRPPRLPRPRPRPGRTPRP, 0.301.
The result for RRIRQRPPRLPRPRPRPDSLPRP reads -0.0756.
RRIRFRPPRLPRPRPRPVFFPRP: the “shrunken log2 fold change” value was 0.00921.
The result for RRIRDRPPRLPRPRPRPSIKPRP reads -0.491; that for RRIRARPPRLPRPRPRPPFQPRP, 0.415.
The result for RRIRKRPPRLPRPRPRPKVWPRP reads 0.354; that for RRIRSRPPRLPRPRPRPQENPRP, -0.0522; that for RRIRCRPPRLPRPRPRPRACPRP, 0.24.
The result for RRIRERPPRLPRPRPRPELKPRP reads 0.138.
In the case of RRIRYRPPRLPRPRPRPGRLPRP, the “shrunken log2 fold change” value was -0.0505.
The result for RRIRWRPPRLPRPRPRPMQVPRP reads -0.0191; that for RRIRMRPPRLPRPRPRPMLSPRP, 0.0117; that for RRIRSRPPRLPRPRPRPYFCPRP, -0.354.
The result for RRIRGRPPRLPRPRPRPLGLPRP reads 0.841; that for RRIRQRPPRLPRPRPRPNYAPRP, -0.0208.
The result for RRIRWRPPRLPRPRPRPGKHPRP reads 0.0375.
For the sequence RRIRFRPPRLPRPRPRPGLSPRP, the “shrunken log2 fold change” value was -0.0429.
The result for RRIRFRPPRLPRPRPRPNVTPRP reads -0.724; that for RRIRIRPPRLPRPRPRPWGWPRP, 0.0753; that for RRIRKRPPRLPRPRPRPLMPPRP, 0.232.
On to RRIRNRPPRLPRPRPRPAIRPRP, for which the “shrunken log2 fold change” value was -0.0992.
The result for RRIRRRPPRLPRPRPRPPPYPRP reads 0.366; that for RRIRWRPPRLPRPRPRPLTNPRP, -0.114; that for RRIRMRPPRLPRPRPRPEFFPRP, 0.277.
RRIRWRPPRLPRPRPRPVWMPRP: the “shrunken log2 fold change” value turned out to be 0.333.
For RRIRIRPPRLPRPRPRPLAGPRP, the “shrunken log2 fold change” value came out at 0.00712.
The result for RRIRTRPPRLPRPRPRPHDLPRP reads -0.0128.
On to RRIRARPPRLPRPRPRPVCTPRP, for which the “shrunken log2 fold change” value was found to be 0.434.
The result for RRIRSRPPRLPRPRPRPTFNPRP reads -0.366; that for RRIRNRPPRLPRPRPRPKPGPRP, 0.235.
